For orientation: Kd means the constant that tells how readily two partners part at equilibrium. A high value points to weaker binding.

These results are taken from paper PMC9712689 (Communications Biology, 2022).

Common to all, as to test: MST
Common to all, as to conditions: both partners purified

The target in one test is T1, MltA (P. aeruginosa PAO1, UniProt Q9I4B6 1-385).
T1 sequence (looked up): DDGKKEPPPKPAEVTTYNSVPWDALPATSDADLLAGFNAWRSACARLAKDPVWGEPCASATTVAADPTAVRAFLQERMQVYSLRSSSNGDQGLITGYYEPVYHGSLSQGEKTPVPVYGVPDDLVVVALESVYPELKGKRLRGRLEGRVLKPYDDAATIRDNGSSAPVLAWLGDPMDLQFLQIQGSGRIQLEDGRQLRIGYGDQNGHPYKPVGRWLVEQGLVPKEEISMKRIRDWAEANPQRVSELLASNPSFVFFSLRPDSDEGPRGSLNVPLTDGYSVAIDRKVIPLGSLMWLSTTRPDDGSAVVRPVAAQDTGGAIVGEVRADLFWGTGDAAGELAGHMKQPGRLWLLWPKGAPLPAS

The target in a further test is PBP1a (P. aeruginosa PAO1, UniProt Q07806 27-822).
The target of a further test is T2, MltB (P. aeruginosa PAO1, UniProt Q9HVX3 1-367).
T2 sequence (looked up): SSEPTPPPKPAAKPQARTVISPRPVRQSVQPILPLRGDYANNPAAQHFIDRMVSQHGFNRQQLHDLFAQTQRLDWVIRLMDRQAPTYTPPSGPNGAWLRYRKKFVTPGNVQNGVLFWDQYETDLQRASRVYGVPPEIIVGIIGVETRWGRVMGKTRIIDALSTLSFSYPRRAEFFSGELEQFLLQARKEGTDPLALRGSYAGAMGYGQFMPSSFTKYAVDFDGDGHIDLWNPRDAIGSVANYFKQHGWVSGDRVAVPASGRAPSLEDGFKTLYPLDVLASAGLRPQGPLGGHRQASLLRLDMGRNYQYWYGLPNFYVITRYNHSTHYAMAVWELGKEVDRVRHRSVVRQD

The target in another test is MltF (P. aeruginosa PAO1, UniProt Q9HXN1 33-490).
In a further test the target is T3, SltB2 (P. aeruginosa PAO1, UniProt Q9I4G6 1-398).
T3 sequence (looked up): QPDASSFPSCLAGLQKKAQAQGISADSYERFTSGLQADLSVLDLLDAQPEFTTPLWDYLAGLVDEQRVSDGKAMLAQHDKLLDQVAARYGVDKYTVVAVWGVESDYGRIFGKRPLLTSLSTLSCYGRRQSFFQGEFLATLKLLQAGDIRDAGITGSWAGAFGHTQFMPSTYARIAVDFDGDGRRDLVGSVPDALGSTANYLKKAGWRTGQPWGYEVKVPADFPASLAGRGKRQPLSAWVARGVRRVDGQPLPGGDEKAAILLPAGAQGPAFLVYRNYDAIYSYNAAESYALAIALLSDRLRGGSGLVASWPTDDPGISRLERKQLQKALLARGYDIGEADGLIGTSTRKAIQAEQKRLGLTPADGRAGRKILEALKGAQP

For another test, the target named is T4, MltD (P. aeruginosa PAO1, UniProt Q9I2T2 1-534).
T4 sequence (looked up): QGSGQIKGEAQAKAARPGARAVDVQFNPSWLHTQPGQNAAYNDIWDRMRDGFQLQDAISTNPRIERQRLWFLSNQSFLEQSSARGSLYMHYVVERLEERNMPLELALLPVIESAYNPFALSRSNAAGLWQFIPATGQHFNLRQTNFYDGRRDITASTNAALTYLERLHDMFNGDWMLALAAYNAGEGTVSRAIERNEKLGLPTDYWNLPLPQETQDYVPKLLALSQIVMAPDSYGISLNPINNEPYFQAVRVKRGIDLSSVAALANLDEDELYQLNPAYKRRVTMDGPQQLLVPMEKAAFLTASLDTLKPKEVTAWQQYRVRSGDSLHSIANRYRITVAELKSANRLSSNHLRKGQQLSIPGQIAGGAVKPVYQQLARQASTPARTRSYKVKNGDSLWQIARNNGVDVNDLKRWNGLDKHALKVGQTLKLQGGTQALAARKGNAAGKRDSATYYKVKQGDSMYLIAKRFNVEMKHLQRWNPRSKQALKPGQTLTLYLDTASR

The target in the next test is T5, PBP4 (P. aeruginosa PAO1, UniProt Q9HZG1 1-476).
T5 sequence (looked up): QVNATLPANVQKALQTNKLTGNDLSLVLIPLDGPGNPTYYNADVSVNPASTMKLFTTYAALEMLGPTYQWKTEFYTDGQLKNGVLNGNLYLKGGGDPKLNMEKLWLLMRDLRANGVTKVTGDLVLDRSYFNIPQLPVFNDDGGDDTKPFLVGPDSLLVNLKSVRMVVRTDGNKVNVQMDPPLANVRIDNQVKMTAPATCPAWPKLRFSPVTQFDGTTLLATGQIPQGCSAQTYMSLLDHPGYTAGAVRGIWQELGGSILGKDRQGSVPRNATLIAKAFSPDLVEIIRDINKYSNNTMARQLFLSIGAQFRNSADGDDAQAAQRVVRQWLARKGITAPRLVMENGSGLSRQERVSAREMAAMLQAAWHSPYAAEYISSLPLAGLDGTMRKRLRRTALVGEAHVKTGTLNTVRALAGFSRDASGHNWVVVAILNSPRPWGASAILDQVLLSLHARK

The target in a further test is T6, TypA (P. aeruginosa PAO1, UniProt Q9HU67 1-605).
T6 sequence (looked up): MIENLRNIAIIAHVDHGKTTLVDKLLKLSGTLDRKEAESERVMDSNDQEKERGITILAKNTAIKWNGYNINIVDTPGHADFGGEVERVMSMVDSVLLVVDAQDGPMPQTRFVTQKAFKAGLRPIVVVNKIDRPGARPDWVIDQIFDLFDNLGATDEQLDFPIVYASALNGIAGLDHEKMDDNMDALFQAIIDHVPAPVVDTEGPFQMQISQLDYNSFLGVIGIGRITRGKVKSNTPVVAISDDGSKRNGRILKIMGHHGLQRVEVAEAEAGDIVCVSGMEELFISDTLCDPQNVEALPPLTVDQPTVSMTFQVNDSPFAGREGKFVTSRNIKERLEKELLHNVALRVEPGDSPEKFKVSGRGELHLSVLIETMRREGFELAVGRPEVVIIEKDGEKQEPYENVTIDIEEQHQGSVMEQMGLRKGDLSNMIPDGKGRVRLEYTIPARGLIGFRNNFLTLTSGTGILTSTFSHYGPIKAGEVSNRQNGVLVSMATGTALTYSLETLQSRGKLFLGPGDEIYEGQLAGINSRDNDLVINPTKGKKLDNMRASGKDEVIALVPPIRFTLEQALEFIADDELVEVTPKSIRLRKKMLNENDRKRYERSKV

Another test has as its target T7, MltF2 (P. aeruginosa PAO1, UniProt Q9HZY1 1-476).
T7 sequence (looked up): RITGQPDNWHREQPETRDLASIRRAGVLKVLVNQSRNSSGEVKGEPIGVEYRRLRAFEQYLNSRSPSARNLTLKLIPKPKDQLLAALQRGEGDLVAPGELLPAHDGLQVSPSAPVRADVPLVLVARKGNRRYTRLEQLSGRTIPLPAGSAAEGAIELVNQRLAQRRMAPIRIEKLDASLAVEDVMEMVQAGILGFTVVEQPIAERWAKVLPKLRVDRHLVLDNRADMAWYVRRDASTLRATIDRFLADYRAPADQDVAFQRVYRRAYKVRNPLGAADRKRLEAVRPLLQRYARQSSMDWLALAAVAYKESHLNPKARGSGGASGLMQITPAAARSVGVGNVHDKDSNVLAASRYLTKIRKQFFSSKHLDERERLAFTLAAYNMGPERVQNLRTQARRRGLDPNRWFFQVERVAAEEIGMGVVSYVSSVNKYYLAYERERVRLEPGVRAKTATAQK

Sequence of PBP1a (Q07806 27-822): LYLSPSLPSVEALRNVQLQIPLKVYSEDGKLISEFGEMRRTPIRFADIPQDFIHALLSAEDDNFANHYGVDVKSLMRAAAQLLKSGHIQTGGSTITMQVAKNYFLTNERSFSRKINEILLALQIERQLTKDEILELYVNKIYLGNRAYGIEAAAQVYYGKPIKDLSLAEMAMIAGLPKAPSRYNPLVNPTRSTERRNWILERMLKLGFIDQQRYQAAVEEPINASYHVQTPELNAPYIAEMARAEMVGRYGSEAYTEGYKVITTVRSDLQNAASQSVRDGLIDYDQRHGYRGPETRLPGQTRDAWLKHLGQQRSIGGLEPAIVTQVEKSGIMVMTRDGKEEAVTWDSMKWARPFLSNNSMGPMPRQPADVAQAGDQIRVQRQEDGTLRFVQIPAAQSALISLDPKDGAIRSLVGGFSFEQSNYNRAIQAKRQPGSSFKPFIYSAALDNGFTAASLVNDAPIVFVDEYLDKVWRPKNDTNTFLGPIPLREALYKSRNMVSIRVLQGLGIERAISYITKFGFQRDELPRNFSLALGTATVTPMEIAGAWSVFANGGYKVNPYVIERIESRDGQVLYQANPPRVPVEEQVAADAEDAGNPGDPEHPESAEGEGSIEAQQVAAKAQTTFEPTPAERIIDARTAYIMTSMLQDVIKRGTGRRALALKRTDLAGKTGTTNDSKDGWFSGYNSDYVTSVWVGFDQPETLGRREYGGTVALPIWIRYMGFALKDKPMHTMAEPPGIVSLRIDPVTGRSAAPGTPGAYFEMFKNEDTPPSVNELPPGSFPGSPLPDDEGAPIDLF
Sequence of MltF (Q9HXN1 33-490): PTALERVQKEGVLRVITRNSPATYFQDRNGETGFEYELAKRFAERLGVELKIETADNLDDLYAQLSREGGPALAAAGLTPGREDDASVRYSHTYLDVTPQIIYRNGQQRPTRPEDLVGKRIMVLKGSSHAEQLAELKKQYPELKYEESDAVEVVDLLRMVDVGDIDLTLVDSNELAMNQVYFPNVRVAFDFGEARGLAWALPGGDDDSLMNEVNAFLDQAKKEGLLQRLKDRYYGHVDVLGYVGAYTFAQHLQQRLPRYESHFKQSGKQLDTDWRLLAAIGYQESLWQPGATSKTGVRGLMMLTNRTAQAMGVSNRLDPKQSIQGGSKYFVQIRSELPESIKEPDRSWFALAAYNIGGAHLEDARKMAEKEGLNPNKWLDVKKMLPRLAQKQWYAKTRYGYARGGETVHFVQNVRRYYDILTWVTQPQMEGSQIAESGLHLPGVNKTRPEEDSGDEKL

B1: RlpA-Δ32, fluorescently labeled (domain or fragment)
chain: PQQPARQAGISGPGDYSRPHRDGAPWWDVDVSRIPDAVPMPHNGSVKANPYTVLGKTYYPMNDARAYRMVGTASWYGTKFHGQATANGETYDLYGMTAAHKTLPLPSYVRVTNLDNGKSVIVRVNDRGPFYSDRVIDLSFAAAKKLGYAETGTARVKVEGIDPVQWWAQRGRPAPMVLAQPKQAVAQAAPAAAQTQAVAMAQPIETYTPPPAQHAAAVLPVQIDSKKNASLPADGLYLQVGAFANPDAAELLKAKLSGVTAAPVFISSVVRNQQILHRVRLGPIGSADEVSRTQDSIRVANLGQPTLVRPD
modifications: amine reactive RED-NHS dye
notes: source: E. coli BL21-star (DE3), purified (Ni-NTA), labelled with RED-NHS dye
Regarding B1, the Kd with MltA stood at 67 nM; in the test with PBP1a, 92 nM; in the test with MltB it was 96 nM; in the test with MltF, 101 nM; with SltB2 it was 110 nM; with MltD it was 240 nM. Moreover, the Kd stood at 550 nM in the test with PBP4, 1000 nM with TypA and 12 nM in the test with MltF2.
